What was measured:
[1] = cited from earlier work
[2] = Photostability under xenon lamp illumination; format: physicochemical; conditions: continuous illumination, 20 min
Method: An aqueous solution of ICG ([…]) in PBS was prepared, and the fluorescence intensity with λex set at 780 nm and λem set at 800 nm was measured. A dispersion of NIR fluorescent P(EF-PLLA) nanoparticles in PBS was prepared, and diluted to give a similar fluorescence intensity to the dye at the same wavelengths. The excitation and emission slits were opened to 20 nm and 5 nm, respectively. Each of the samples was illuminated continuously with a xenon lamp, and the fluorescence intensity was measured over a period of 20 min by a Cary Eclipse fluorescence spectrophotometer (Agilent Technologies Inc.). Intensity values were normalized for comparison.

[3] = system: HCT116 human colon cancer cells; assay: XTT cell viability, HCT116; format: cell-based
Method: HCT116 human colon cancer cells were treated with 0.01 mg/mL NPs, hollow or containing 1.66 μg Dox, non-conjugated and conjugated to 35 ng TRAIL. Free Dox, free TRAIL and PBS served as control groups. Absorption was measured for all samples, each in six, with TECAN spectrophotometer to determine the cell viability. […] It was chosen to continue with the TRAIL-PEG-Dox NPs, as PEGylation modifies the physical and chemical properties of the drug, and can decrease immunogenicity and improve drug solubility.

N[C@@H](Cc1c[nH]cn1)C(=O)O [histidine]
pKa of α-amine group [1]: 9.33

CC1(C)C(/C=C/C=C/C=C/C=C2\N(CCCCS(=O)(=O)O)c3ccc4ccccc4c3C2(C)C)=[N+](CCCCS(=O)(=O)[O-])c2ccc3ccccc3c21 [free ICG, indocyanine green]
fluorescence intensity during illumination [2]: decreased significantly

B1: PEG-TRAIL NPs: hollow NPs (without Dox) conjugated to TRAIL via PEG (conjugate, UniProt P50591 1-281, looked up)
Tumor necrosis factor ligand …: MAMMEVQGGPSLGQTCVLIVIFTVLLQSLCVAVTYVYFTNELKQMQDKYSKSGIACFLKEDDSYWDPNDEESMNSPCWQVKWQLRQLVRKMILRTSEETISTVQEKQQNISPLVRERGPQRVAAHITGTRGRSNTLSSPNSKNEKALGRKINSWESSRSGHSFLSNLHLRNGELVIHEKGFYYIYSQTYFRFQEEIKENTKNDKQMVQYIYKYTSYPDPILLMKSARNSCWSKDAEYGLYSIYQGGIFELKENDRIFVSVTNEHLIDMDHEASFFGAFLVG
modifications: PEG-linked to hollow nanoparticles
toxic effect ([3]; 0.01 mg/mL NPs, 24 h and 72 h): did not have a toxic effect

B2: free TRAIL: TNF-related apoptosis-inducing ligand (protein, UniProt P50591 1-281, looked up)
Tumor necrosis factor ligand …: B1 Tumor necrosis factor ligand …
cell viability course ([3]; after 72 h): recovery in the cell viability
toxicity ([3]; over 24 h): good toxicity
